Publication PMC6853996, “Assaying Homodimers of NF-κB in Live Single Cells” (Frontiers in Immunology, 2019)
Values joined by “and” are separate entries in the source; they are usually repeats but may differ in a detail not shown here. Equal values may be shown once.

Legend:
[1] = molecular target: T1, mEGFP-RelA (fluorescent fusion protein expressed from the pSF-EF1α-Ub-Neo plasmid), Q04207; assay: Number and Brightness (N&B) live-cell confocal fluorescence fluctuation microscopy; nuclei of live NIH3T3 fibroblasts transiently or stably expressing the mEGFP fusion, 37°C; brightness ε relative to the mEGFP-mutGR monomer control; stimuli 10 ng/mL TNFα, 100 ng/mL LPS, 100 nM Dex, dihydrotestosterone or progesterone; pre-treatments WFA (0.5 or 1 μM, 1 h) or TSA (2 h) before LPS; untagged endogenous protein present; details: remark: other sources report otherwise
T1 chain: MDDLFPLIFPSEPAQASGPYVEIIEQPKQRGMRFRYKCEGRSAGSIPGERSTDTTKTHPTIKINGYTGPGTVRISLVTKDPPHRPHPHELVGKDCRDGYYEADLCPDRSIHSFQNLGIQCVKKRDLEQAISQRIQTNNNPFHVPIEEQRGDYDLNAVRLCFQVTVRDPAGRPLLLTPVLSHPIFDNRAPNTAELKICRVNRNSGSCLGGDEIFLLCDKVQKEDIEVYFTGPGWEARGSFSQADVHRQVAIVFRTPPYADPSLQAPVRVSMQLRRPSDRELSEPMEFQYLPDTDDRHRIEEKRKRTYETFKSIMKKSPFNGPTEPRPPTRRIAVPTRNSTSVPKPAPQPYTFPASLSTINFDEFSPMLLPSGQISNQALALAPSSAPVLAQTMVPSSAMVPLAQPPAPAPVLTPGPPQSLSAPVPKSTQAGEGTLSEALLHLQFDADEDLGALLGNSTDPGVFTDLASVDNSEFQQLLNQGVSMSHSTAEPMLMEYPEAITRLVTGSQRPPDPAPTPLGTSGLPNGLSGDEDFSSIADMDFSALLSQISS

[2] = molecular target: T1, mEGFP-RelA (fluorescent fusion protein …); assay: Number and Brightness (N&B) live-cell confocal fluorescence fluctuation microscopy; nuclei of live primary mouse adult fibroblasts (WT or p50/c-Rel double-KO) transiently expressing mEGFP-RelA, 100 ng/mL LPS; brightness ε relative to the monomer control; untagged endogenous RelA present; details: remark: other sources report otherwise
[3] = molecular target: T2, mEGFP-RelA from the knock-in (KI) mouse (mEGFP inserted at the endogenous RelA locus) (mouse), Q04207; assay: Number and Brightness (N&B) live-cell confocal fluorescence fluctuation microscopy; nuclei of live primary MAFs from the mEGFP-RelA knock-in mouse, treated with TNFα or LPS; all RelA tagged; details: remark: other sources report otherwise
T2 chain: T1 chain

[4] = molecular target: T3, mEGFP-GR (mEGFP-tagged wild-type glucocorticoid receptor), P06537; assay: Number and Brightness (N&B) live-cell confocal fluorescence fluctuation microscopy; nuclei of live NIH3T3 fibroblasts transiently or stably expressing the mEGFP fusion, 37°C; brightness ε relative to the mEGFP-mutGR monomer control; stimuli 10 ng/mL TNFα, 100 ng/mL LPS, 100 nM Dex, dihydrotestosterone or progesterone; pre-treatments WFA (0.5 or 1 μM, 1 h) or TSA (2 h) before LPS; untagged endogenous protein present; details: remark: other sources report otherwise
T3 chain: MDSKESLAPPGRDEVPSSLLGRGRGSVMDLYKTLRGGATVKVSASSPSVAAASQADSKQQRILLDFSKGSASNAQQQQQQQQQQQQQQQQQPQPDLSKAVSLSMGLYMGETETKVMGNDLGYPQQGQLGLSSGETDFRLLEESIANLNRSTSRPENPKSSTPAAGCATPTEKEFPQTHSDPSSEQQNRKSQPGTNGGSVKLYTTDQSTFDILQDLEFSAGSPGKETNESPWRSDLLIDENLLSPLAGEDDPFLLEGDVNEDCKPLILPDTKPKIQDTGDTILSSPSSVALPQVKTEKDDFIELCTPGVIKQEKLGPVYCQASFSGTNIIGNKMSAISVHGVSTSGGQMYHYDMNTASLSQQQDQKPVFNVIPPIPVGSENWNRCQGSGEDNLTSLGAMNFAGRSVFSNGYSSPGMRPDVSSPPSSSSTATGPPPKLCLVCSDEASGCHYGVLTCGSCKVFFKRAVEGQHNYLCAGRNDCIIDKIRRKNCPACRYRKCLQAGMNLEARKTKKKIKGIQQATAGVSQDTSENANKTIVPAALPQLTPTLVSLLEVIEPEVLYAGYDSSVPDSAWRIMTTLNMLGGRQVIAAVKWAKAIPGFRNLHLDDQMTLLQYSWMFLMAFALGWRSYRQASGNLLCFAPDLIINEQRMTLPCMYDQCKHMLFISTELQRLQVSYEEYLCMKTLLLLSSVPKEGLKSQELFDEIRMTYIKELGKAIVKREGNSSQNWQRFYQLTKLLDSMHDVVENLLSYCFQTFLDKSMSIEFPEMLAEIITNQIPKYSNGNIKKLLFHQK

[5] = molecular target: the molecule itself; assay: as above

B1: mEGFP-RelA (fluorescent fusion protein expressed from the pSF-EF1α-Ub-Neo plasmid), Q04207 1-549 (natural protein)
chain: T1 chain
Binder B1 has a median nuclear brightness (ε) relative to monomer control; stably transfected 3T3, LPS [1] of 1.75, a median nuclear brightness (ε) relative to monomer control; stably transfected 3T3, TNFα [1] of 1.61 and a median nuclear brightness (ε) relative to monomer control; transiently transfected 3T3, TNFα [1] of 1.52. For the same binder, the nuclear brightness (ε); stably transfected 3T3, 0.5 μM WFA before LPS [1] was 1.57, the nuclear brightness (ε); stably transfected 3T3, 1 μM WFA before LPS [1] was 1.61 and the nuclear brightness (ε); stably transfected 3T3, TSA before LPS (concentration not given) [1] was 1.42 and 1.58. It also gave a percent dimers (estimated from ε); stably transfected 3T3, LPS [1] of 60%, a percent dimers (estimated from ε); stably transfected 3T3, TNFα [1] of 43% and a percent of RelA dimer species that are RelA homodimers (estimated from ε); transiently transfected 3T3, TNFα [1] of 35%. It also gave a nuclear brightness (ε) relative to monomer control; WT primary MAFs, LPS [2] of 1.29, a nuclear brightness (ε) relative to monomer control; p50/c-Rel double-KO primary MAFs, LPS [2] of 1.31 and a percent of RelA-containing dimers in the nucleus that are homodimers (estimated from ε); WT primary MAFs, LPS [2] of 20%.

B2: mEGFP-RelA from the knock-in (KI) mouse (mEGFP inserted at the endogenous RelA locus), Q04207 1-549 (natural protein)
chain: T1 chain
B2 was tested, and the percent of RelA dimer species that are RelA homodimers; knock-in MAFs, TNFα or LPS [3] was < 35%.

B3: mEGFP-GR (mEGFP-tagged wild-type glucocorticoid receptor), P06537 1-792 (natural protein)
chain: T3 chain
In the case of B3, the nuclear brightness (ε) relative to monomer control; transiently transfected 3T3, Dex [4] is reported as 1.52.

B4: mEGFP-PR (mEGFP-tagged progesterone receptor) (natural protein, UniProt P06401 1-933, looked up)
chain: MTELKAKGPRAPHVAGGPPSPEVGSPLLCRPAAGPFPGSQTSDTLPEVSAIPISLDGLLFPRPCQGQDPSDEKTQDQQSLSDVEGAYSRAEATRGAGGSSSSPPEKDSGLLDSVLDTLLAPSGPGQSQPSPPACEVTSSWCLFGPELPEDPPAAPATQRVLSPLMSRSGCKVGDSSGTAAAHKVLPRGLSPARQLLLPASESPHWSGAPVKPSPQAAAVEVEEEDGSESEESAGPLLKGKPRALGGAAAGGGAAAVPPGAAAGGVALVPKEDSRFSAPRVALVEQDAPMAPGRSPLATTVMDFIHVPILPLNHALLAARTRQLLEDESYDGGAGAASAFAPPRSSPCASSTPVAVGDFPDCAYPPDAEPKDDAYPLYSDFQPPALKIKEEEEGAEASARSPRSYLVAGANPAAFPDFPLGPPPPLPPRATPSRPGEAAVTAAPASASVSSASSSGSTLECILYKAEGAPPQQGPFAPPPCKAPGASGCLLPRDGLPSTSASAAAAGAAPALYPALGLNGLPQLGYQAAVLKEGLPQVYPPYLNYLRPDSEASQSPQYSFESLPQKICLICGDEASGCHYGVLTCGSCKVFFKRAMEGQHNYLCAGRNDCIVDKIRRKNCPACRLRKCCQAGMVLGGRKFKKFNKVRVVRALDAVALPQPVGVPNESQALSQRFTFSPGQDIQLIPPLINLLMSIEPDVIYAGHDNTKPDTSSSLLTSLNQLGERQLLSVVKWSKSLPGFRNLHIDDQITLIQYSWMSLMVFGLGWRSYKHVSGQMLYFAPDLILNEQRMKESSFYSLCLTMWQIPQEFVKLQVSQEEFLCMKVLLLLNTIPLEGLRSQTQFEEMRSSYIRELIKAIGLRQKGVVSSSQRFYQLTKLLDNLHDLVKQLHLYCLNTFIQSRALSVEFPEMMSEVIAAQLPKILAGMVKPLLFHKK
notes: progesterone receptor; Assayed in cells treated with progesterone; source: fibroblasts (immortalized), transiently transfected, in live cells
In the case of B4, the “nuclear brightness (ε) relative to monomer control; transiently transfected fibroblasts, progesterone” value [5] is reported as 2.07.
